# Results published in patent US20260042834A1 (HBM ALPHA THERAPEUTICS, published 2026).
# T1: CRH (NT-Biotin) (human and mouse, not fully specified; biotin at the N-terminus)
# T1 construct: also called Biotin-CRH; N-terminally biotinylated corticotropin-releasing hormone
# T1 peptide: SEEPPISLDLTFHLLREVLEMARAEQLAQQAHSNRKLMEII
# T2: corticotropin-releasing hormone (CRH) peptide (human and mouse, not fully specified)
# T2 peptide: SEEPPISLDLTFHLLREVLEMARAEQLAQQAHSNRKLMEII
# T3: CRH (CT-Biotin) (human and mouse, biotin on the added C-terminal K (-K-Biotin))
# T3 construct: also called Peptide 4 (CRH-Biotin); C-terminally biotinylated corticotropin-releasing hormone
# T3 peptide: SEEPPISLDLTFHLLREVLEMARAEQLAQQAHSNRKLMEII
# Columns and labels:
# CRH (NT-Biotin) = biological target: T1, CRH (NT-Biotin); assay: ELISA, N-terminally biotinylated CRH on streptavidin-coated plate
# Method: (§1) Streptavidin (Thermo, Cat: 21125) was diluted in PBS to a concentration of 2 μg/ml. 100 μl of diluted streptavidin was added per well to ELISA microplates, and the plates were incubated overnight at 4° C. […] 100 μL of 3,3′,5,5′-tetramethylbenzidine (TMB) substrate (Biopanda, Cat: TMB-S-003) was added, and the plates were incubated at room temperature for 15 minutes. 100 μL of ELISA stopping solution (Solarbio, Cat #: C1058) was added to terminate the reaction, and the optical density at 450 nm (OD450 nm) was determined by an ELISA plate reader (Molecular Devices, Spectra max 384 plus).
# [1] = biological target: T2, corticotropin-releasing hormone (CRH) …; assay: cell-based or functional assay
# CRH (CT-Biotin) = biological target: T3, CRH (CT-Biotin); assay: ELISA, C-terminally biotinylated CRH on streptavidin-coated plate
# Method: as §1
binder,measurement,setting,value
"PR302312 (antibody, human IgG1, kappa, V domains shown, Mouse variable domains, expressed recombinantly with human IgG1 wildtype Fc; also called Series 10 mAb) VH: EVQLQQSGPELVKPGASVKMSCKASGYTFTDYFMKWMKQSHGKSLEWIGVINPNNGDTFYNQNFKGKATLTVDKSSSTAYMQLNSLTSEDSAVYYCTRGTARALFAYWGQGTLVTVSA VL: DVLMTQTPLSLPVSLGDQASISCRSSQSIVHSDGNTYLEWYLQRPGQSPKLLIYKVSNRFSGVPDRFSGSGSGTDFTLKISRVGAEDLGVYYCFQGSHVPWTFGGGTKLEVKR",EC50,CRH (NT-Biotin),0.025 nM
same,hCRHR1 Reporter IC50,[1],1.37 nM
same,EC50,CRH (CT-Biotin),~0.011 nM
"PR302315 (antibody, human IgG1, kappa, V domains shown, Mouse variable domains, expressed recombinantly with human IgG1 wildtype Fc; also called Series 8 mAb) VH: DVQLVESGGGLMQPGGSRKLSCVASGFTFSSFGMHWVRQAPEKGLEWVAYISSGSSIIYYADTVKGRFTISRDNPKNILFLQMTSLRSEDTAMYYCARDITTATFAYWGQGTLVTVSA VL: DVVMTQTPLSLPVSLGDQASISCRSSQSLVHSNGNTYLHWYLQKPGQSPKLLIYKVSNRFSGVPDRFSGSGSGTDFTLKISRVEAEDLGVYFCSQSTHVPWTFGGGTKLEIKR",EC50,CRH (NT-Biotin),0.014 nM
same,hCRHR1 Reporter IC50,[1],13.9 nM
same,EC50,CRH (CT-Biotin),0.008 nM
"PR302335 (antibody, human IgG1, kappa, V domains shown, Mouse variable domains, expressed recombinantly with human IgG1 wildtype Fc; also called Series 8 mAb) VH: DVQLVESGGGLVQPGGSRKLSCAASGFTFSSFGMHWVRQAPEKGLEWVAYISSGSTIFYYADTVKGRFTISRDNPKNTLFLQMTSLRSEDTAMYYCARDITTATFAFWGQGTLVTVSA VL: DVVLTQTPLSLPVSLGDQVSISCRSSQNLLHNNGNTYLHWYLQKPGQSPRLLIYKVSNRFSGVPDRFSGSGSGTDFTLKITRVEAEDLGVYFCSQSTHIPWTFGGGTKLEIKR",EC50,CRH (NT-Biotin),0.014 nM
same,hCRHR1 Reporter IC50,[1],3.72 nM
same,EC50,CRH (CT-Biotin),0.016 nM
"PR301790 (antibody, human IgG1, kappa, V domains shown, Mouse variable domains, expressed recombinantly with human IgG1 wildtype Fc; also called Series 5 mAb) VH: EMKLEESGGGLVQPGGSMKLSCVASGFTFSNYWMNWVRQSPEKGLEWVAEIRLKSNNYATHYAESVKGRFTISRDDSKSSVYLQMNNLRAEDTGIYYCTIGTLVYWGQGTLVTVSA VL: DIVLTQSPASLAVSLGQRATISCRASQSVSTSSYNYMHWYQQKPGQPPKLLIKFASNLESGVPARFSGSGSGTDFTLNIHPVEEEDTATFYCQHSWEIPYTFGGGTKLEIKR",EC50,CRH (NT-Biotin),0.017 nM
same,hCRHR1 Reporter IC50,[1],0.055 nM
same,EC50,CRH (CT-Biotin),0.019 nM
"PR301803 (antibody, human IgG1, kappa, V domains shown, Mouse variable domains, expressed recombinantly with human IgG1 wildtype Fc; also called Series 5 mAb) VH: EVKLEESGGGLVQPGGSMKLSCVASGFTFNNYWMNWVRQSPEKGLEWVAEIRLKSNNYATHYAESLKGRFTISRDDSKSSVYLQMNNLRAEDTGIYYCTVGTLVYWGQGTLVTVSA VL: DIVLTQSPASLVVSLGQRATISCRASQSVSTSTYNYMHWYQQKPGQPPKLLIKFASNLESGVPARFSGSGSGTDFTLNIHPVEEEDTATFYCQHSWEIPYTFGGGTKLEIKR",EC50,CRH (NT-Biotin),0.021 nM
same,hCRHR1 Reporter IC50,[1],1.04 nM
same,EC50,CRH (CT-Biotin),0.013 nM
"PR302328 (antibody, human IgG1, kappa, V domains shown, Mouse variable domains, expressed recombinantly with human IgG1 wildtype Fc; also called Series 9 mAb) VH: EVKLVESGGGLVKPGGSLKLSCAASGFTFSSYAMSWVRQTPEKRLEWVASIRSGGTTYYPDSVKGRFTISRDNARNILYLQMSSLRSEDTAIYYCTRGIDWGQGTLVTVSA VL: NIVMTQTPKFLLVSAGDRVTITCKASQSVNNDVAWYQQKPGQSPKLLIYYASNRYTGVPDRFTGSGYGTDFTFTISTVQAEDLAVYFCQQDYSSWTFGGGTKLEIKR",EC50,CRH (NT-Biotin),0.043 nM
same,hCRHR1 Reporter IC50,[1],0.545 nM
same,EC50,CRH (CT-Biotin),0.03 nM
"PR302331 (antibody, human IgG1, kappa, V domains shown, Mouse variable domains, expressed recombinantly with human IgG1 wildtype Fc; also called Series 9 mAb) VH: EVKLVESGGGLVKPGGSLKLSCAASGFTFSSYAMSWVRQSPEKRLEWVASIRSGGTTYYPDSVKGRFTISRDNARNILYLQMSSLRSEDTAIYYCTRGIDWGQGTLVTVSA VL: NIVMTQTPKFLLVSAGDRVTIACKASQSVNNDVAWYQQKPGQSPKLLIYYASNRYTGVPDRFTGSGYGTDFTFTISTVQAEDLAVYFCQQDYSSWTFGGGTKLEIKR",EC50,CRH (NT-Biotin),0.016 nM
same,hCRHR1 Reporter IC50,[1],0.39 nM
same,EC50,CRH (CT-Biotin),0.02 nM
"PR302334 (antibody, human IgG1, kappa, V domains shown, Mouse variable domains, expressed recombinantly with human IgG1 wildtype Fc; also called Series 9 mAb) VH: EVKLVESGGGLVKPGGSLKLSCAASGFTFSTYAMSWVRQTPEKRLEWVASIRSGGTTYYPDSVKGRFTISRDNARNILYLQMSSLRSEDTAIYYCTRGIDWGQGTLVTVSA VL: NIVMTQTPKFLLVSAGDRITITCKASQSVNNDVAWYQQKPGQSPKLLIYYASNRYTGVPDRFTGSGYGTDFTFTISTVQAEDLAVYFCQQDYSSWTFGGGTNLEIKR",EC50,CRH (NT-Biotin),0.026 nM
same,hCRHR1 Reporter IC50,[1],0.546 nM
same,EC50,CRH (CT-Biotin),0.021 nM
"PR302339 (antibody, human IgG1, kappa, V domains shown, Mouse variable domains, expressed recombinantly with human IgG1 wildtype Fc; also called Series 9 mAb) VH: EVKLVESGGGLVKPGGSLKLSCAASGFTFSSYALSWVRQTPEKRLEWVASIRSGGTTYYPDSVKGRFTISRDNARNILYLQMSSLRSEDTAIYYCTRGIDWGQGTLVTVSA VL: NIVMTQTPKFLLVSAGDRVTITCKASQSVNNDVAWYQQKPGQSPKLLIYYASNRYTGVPDRFTGSGYGTDFTFTISTVQAEDLAVYFCQQDYSSWTFGGGTKLEIKR",EC50,CRH (NT-Biotin),0.018 nM
same,hCRHR1 Reporter IC50,[1],0.852 nM
same,EC50,CRH (CT-Biotin),0.018 nM
